# Target: the molecule itself
# Experiment: SEC; Nesprin-2-SMC released from GST by thrombin, on a Sephadex G-200 gel filtration column; markers ovalbumin 43 kDa, conalbumin 75 kDa, aldolase 158 kDa; fractions also checked by SDS-PAGE
protein,measurement,value
"Nesprin-2-SMC (domain or fragment, human, UniProt Q8WXH0 1436-1766, looked up, Nesprin-2, human, SMC domain, aa 1436-1766, spectrin repeats 11-13; Calculated molecular weight 38.78 kDa (39 kDa); also called Nesprin-2-SMC domain; SMC polypeptide; source: E. coli XL-1 blue, purified (Glutathione-Sepharose 4B, released from GST by thrombin cleavage); not shown: GST, N-terminal, cleaved) NNELLKNIQDVQSQISKIGLKDPTVPAVKHRKKSLIRLDKVLDEYEEEKRHLQEMANSLPHFKDGREKTVNQQCQNTVVLWENTKALVTECLEQCGRVLELLKQYQNFKSILTTLIQKEESVISLQASYMGKENLKKRIAEIEIVKEEFNEHLEVVDKINQVCKNLQFYLNKMKTFEEPPFEKEANIIVDRWLDINEKTEDYYENLGRALALWDKLFNLKNVIDEWTEKALQKMELHQLTEEDRERLKEELQVHEQKTSEFSRRVAEIQFLLQSSEIPLELQVMESSILNKMEHVQKCLTGESNCHALSGSTAELREDLDQAKTQIGMTES",binding result,binds
